Test: label from the status in PepcDB records

For “MISALDSIPEPQNFAPSPDFKWLCEELFVKIHEVQINGTAGTGKSRSFKYYEIISNFVEMWRKTVGNNIYPALVLALPYRDRRIYNIKDYVLIRTICSYLKLPKNSATEQRLKDWKQRVGKGGNLSSLLVEEIAKRRAEPSSKAITIDNVNHYLDSLSGDRFASGRGFKSLVKSKPFLHCVENMSFVELKYFFDIVLKNRVIGGQEHKLLNCWHPDAQDYLSVISDLKVVTSKLYDPKVRLKDDDLSIKVGFAFAPQLAKKVNLSYEKICRTLHDDFLVEEKMDGERIQVHYMNYGESIKFFSRRGIDYTYLYGASLSSGTISQHLRFTDSVKECVLDGEMVTFDAKRRVILPFGLVKGSAKEALSFNSINNVDFHPLYMVFDLLYLNGTSLTPLPLHQRKQYLNSILSPLKNIVEIVRSSRCYGVESIKKSLEVAISLGSEGVVLKYYNSSYNVASRNNNWIKVKPEYLEEFGENLDLIVIGRDSGKKDSFMLGLLVLDEEEYKKHQGDSSEIVDHSSQEKHIQNSRRRVKKILSFCSIANGISQEEFKEIDRKTRGHWKRTSEVAPPASILEFGSKIPAEWIDPSESIVLEIKSRSLDNTETNMQKYATNCTLYGGYCKRIRYDKEWTDCYTLNDLYESRTVKSNPSYQAERSQLGLIRKKRKRVLISDSFHQNRKQLPISNIFAGLLFYVLSDYVTEDTGIRITRAELEKTIVEHGGKLIYNVILKRHSIGDVRLISCKTTTECKALIDRGYDILHPNWVLDCIAYKRLILIEPNYCFNVSQKMRAVAEKRVDCLGDSFENDISETKLSSLYKSQLSLPPMGELEIDSEVRRFPLFLFSNRIAYVPRRKISTEDDIIEMKIKLFGGKITDQQSLCNLIIIPYTDPILRKDCMNEVHEKIKEQIKASDTIPKIARVVAPEWVDHSINENCQVPEEDFPVVNY”, the protein production was “failed”.

In the case of “MKTKPQAPHVDFYEKSELLHFLDCASKHENPQAFMFFRLLAFTGLRRGEALALQWSDINFETNELTVNKTQAVGKRWRTIIQTPKTNTSYRTIVLDPDTAQWLHKWKMTQARQCFELGFNANDPSQLVFTNQQNKLMSPSTVNYFNWSICKKYGLRHIKIHAFRHTFCTLAFEAHAGINEVSKTLGHADLKITEQIYLHVTKKQKNETASKLARYMSELLEHHHHHH”, the protein production is reported as “not failed”.

In the case of “MSEMAASSAISLLDIKLRRFGVGASNHELRLTKWFKGDQAGAPTRRFTCFADMLAPIRRSEKSEERRFDQKMSAHGAGIKTSSSAVPFASPKSRFLSKQEKFYPRCTPRLTGPQSRDTPPKRDTGIANEKDWGIDLLNENVNEAGTNEDGSSWFRESGHDLGDNGYRCRWSRMGGRSHDGSSEWTETWWEKSDWTGYKELGVEKSGKNSEGDSWWETWQEVLHQDEWSNLARIERSAQKQAKSGTENAGWYEKWWEKYDAKGWTEKGAHKYGRLNEQSWWEKWGEHYDGRGSVLKWTDKWAETELGTKWGDKWEEKFFSGIGSRQGETWHVSPNSDRWSRTWGEEHFGNGKVHKYGKSTTGESWDIVVDEETYYEAEPHYGWADVVGDSTQLLSIQPRERPPGVYPNLEFGPSPPPEPDLPLTNHNDITSVCLAY”, the protein production is reported as “failed”.

In the case of “MTRSRRGALARSSEGGPFPTADPVADRALCGWRVRSVIDLPELPLWTRDDRLPDVTIAFGRVTPVESASPGMNWHVVGEGRFRFTVASVGSYRISRGRVITIDPQAGVVASAVRQYLLGTAFGVLCHQRGLLPLHASCVAINGRAVAIAGASGAGKSSLAAALVRLGYPLLGDDVCVIDASEINAPHVLPAIPRLKLWRDVLDTFGLIVDPAARILEGIDKYQAQALADRPPPPPPQVPLPLGVVYYLDQAESPDDEGFHAIRGAERAAALAGAVYRRKMGLAMGLLPQIFTATMTVGALVPGHRLLRHGDLSGLDALARSVAARQEGRGLEHHHHHH”, the protein production is reported as “failed”.

For “MDKTNLGELINQGKSLLDESVEGFNVGEYHKGAKDGLTVEINKAEEVFNKEDATEEEINLAKESLEGAIARFNSLLIEESTGDFNGNGKIDIGDLAMVSKNIGSTTNTSLDLNKDGSIDEYEISFINHRILNLEHHHHHH”, the protein production was “not failed”.

With “MELLKIDCLGKSLRLEGSLAGWQLLFWDNNLVSQKAASVDNGGLKVHQFELTQHHSQLASDSGEAQVLENKILVRLETDVVWQPFRFDYRLLVDEEVIAQGTRTEKDIERQMPEIPVTAPQKFSFVGLASLGFKLLKSAKVIKVVLAGASVAAYSWLFSFQFALALIACLVFHEYGHIRAMKYFGMKTKGIYLIPFMGGLALSDEKINTRWQDVVISIMGPTFGLLMSVGSLIAYHFTDNIFFAGLAAFNALLNLFNLLPILPLDGGHILKSISFSMNSIMGLIACVIGAAFGVYISYTLGLALLGFLLLIGSLEIVFEWRSRHQSHLLPLDRYGQIFSTIWYLATVAALVGIIWHLAGTGDDMLSLPLQILRS” the protein production was “failed”.

With “MDHFSYRNTNKMVRTHVVVGSRPCCFSCAMEEKDPCVRKAWLELSLRDMHMIRDDTELALTLSFIWRYAMADPENPELPSLGVFECMTRLMKKGLEDVEWVMTGQNVYVPYYAAHIIGSYTMKKPDFATKAVESGVIAPLLELMRRKMSWVEQRVVVRALGHLASYETTFEAVAAYEDEVVRLAMEIAMTCVDVVYEEFVSVQEKEGRVRYHSDLLTRGLGGLEMEDRKAEEWASQLQCWSLHLLNCFAYKQKCISLICNKTFLKELSQMWGGLVNHTSPSGIGLIRILCYSKQGRRHVSGSREMILSLCNLSRSSDDWQYMGIDCLLLLLKDQATRYNVLEMSLFYLVDLVEVKALNVRKNLGDRITKVLLMHYCKTKKGCAYSHKAQKALKELWRNKVERRRRERKFMSKNQDFLRETSVVVYLIKQQANQLLHVGDIEGAIKCYTEAIGLCPLKLRRKRMNLYSERGECYLLLGDVDAAISDCTRALCLSEPVNSHGKSLWTRSRAYDIKGLSRESLMDCIMFVNGRCFRGNIPYYAAQMISKQMEATWLFEKARASKLGRMMLKEKFHLTGIFIFLYICMNISS” the protein production was “failed”.

In the case of “MSLTRTQPVELVTMVMVTDPETQRVLVEDKVNVPWKAGHSFPGGHVEVGEPCATAAIREVFEETGLRLSGVTFCGTCEWFDDDRQHRKLGLLYRASNFTGTLKASAEGQLSWLPITALTRENSAASLPEFLQVFTGTASTLVSDSWNGNLRIDEGHHHHHH”, the protein production is reported as “not failed”.

With “MTVKHLAIAPEGKKSLRLSWTNVAFFTTIHALALLAPWFFSWSALGLLLFLHWLFGSIGICLGYHRLLSHKSFQVPKWLEYAIATIGALAMQGGPIFWIGGHRQHHAHTEDVYLDPYSSQRGFWWSHMLWILYPRSEFFDYEIYQKYAPDLARQPFYRWLDRYFLLLQIPFGLMLYAIGGWSFVIYGVVLRAVLLWHSTWFVNSATHMWGYRTFNADDNARNLWWVSIVTYGEGWHNNHHTYPNVAKAGFQWWEVDVTWWSIKLLQTLGLAKKVVLPPSQRMNQG” the protein production was “failed”.

With “MMDSHCRVRAPGAAQPADCPPPTTQHAALAARLGHARLHTLYDQATWSEGPAWWEAQRTLVWSDVVGRRVLGWREDGAVDVLLDATAFTNGNAVDTQQRLVHCEHGRRAITRSEVDGRAHLLVGRFEGKRLNSPNDLIVARDGAIWFTDPPFGLRKPSQGCPGPQELDHHGVYRLPPDGGALQCMVNLDHPNGLAFSPDERVLYVSQTPEGGPGAPEITALDWHDGALHNRRRFAVVPEGLPDGFCVDCQGWLWSSSGAGVCVFDSGGHVLGLVPTPHTASNCTFDLVQRRLFITGGSTLWLLDLQR” the protein production was “failed”.

In the case of “MAVAALLPQRPTSLEISMEGETFLWLIRHAPVDGVAGTIHAPDAPADLGDRAQLQALRQRLPRDSASYASPSRRTVETARALGLEPDLVGNFSEQDFGDWTGRRHDELAASGGEAYAQFWGDPAHARPPGGESFEDQVARVRHGLSRIGAGPATLVVHSGTIRAALCIALDLAPQSALRFVIDPLSLTRIDRLATGWRVVSVNQRVV”, the protein production is reported as “failed”.

With “LSDPNLVLFYVKNPAKSEEFYKNLLDTQPIESSPTFAMFVMKTGLRLGLWAQEEIEPKAHQTGGGMELSFQVNSNEMVDEIHRQWSDKEISIIQPPTQMDFGYTFVGVDPDEHRLRIFCLKRT” the protein production was “not failed”.

In the case of “MLLRRRLFVLCILILTITAVQSFVHVLSGDGLSALDLALTAVFVPLAAWLAQSFCTLTAGALMIATQRFSWRRRRDELADIASGLVDSLPRVAIVMPVYNEDSGRVFAGVAAMRDELRALGVAKRFDVFILSDSTDGDNWLAEEEAWDSERHRVGDSPRLFYRRRFRNIKRKTGNIGQFVERHGAAYGYMVVLDADSLMSGEAIWVLTRRMDAERRTALIQAPPKLIMGDTPFSRMLQFAGDVYGPLSSAGLAFWAGGEGNYWGHNAIIRVDAFAACCGLPALPGRAPLGGDILSHDFVEAALLRRAGWKVRIAWDLGGSYEEPPPTMEDFMVRDRRWCQGNMQHGRILFARGLHGVSRSHLLIGIMSYVTSPLWLIFLILSGMQAWTLARAKAVYFQQGVPWATWPISREEEAAYLLAGTLGMLFLPKIWGLLLAIFHGPTRRAHGGGLALVGGFFLENLISALVAPIMMIRHSQFVVSILTGAKVDWKPQRRTADKGNLRVALASYKDVMVIGIAAVAFVLWAAPSLGVWLSPVLAGLLGAPFLAMALGDPDLGAALRRRGLLVIPEEITPPSVLTRMEERLAARPPTAEAPESRFSRVILDPGTNARHRALIQATGEAPTAPVEVMERAVGLAIHLGPEALGKDERKALLECPERLEQLHVACWARRLEDRGGVAPG”, the protein production is reported as “failed”.

With “MNDGKATPGEAGCRENQLLKLPGFGNFTIIDRYIARQFLTIFLFALASFAALFILINLVENLDRFLDRHISFGRILIYYLSGLPDTFLLTSPLSVLLASLFVTGKLSMQSELPALKSAGMSLSRLMKPFLLVTMAIAALNTINSCFIAPAMYDWSKGFEKRYLKKQQDNGEEPLHIRESNNRILTVAKIGPDKKSATTVSLETFNGSQIVSRIDADSLRIITRHKYWIFYNTKQRTFSKGAETLVTRAGADTLKLSLAPNTFKMIDTDPDEMNIVQHIDFIWQKARSGLPGLERATVKLHTKLALPLASMIIVLIGVPLSSKKKRSGLAVEISISLLIGLLYLGMLKTIGSLGYDGLLNPVLAAWLPDILFIIAGTFLYRSADH” the protein production was “failed”.

For “MATFMTEDFLLKNDIARTLYHKYAAPMPIYDFHCHLSPQEIADDRRFDNLGQIWLEGDHYKWRALRSAGVDESLITGKETSDYEKYMAWANTVPKTLGNPLYHWTHLELRRPFGITGTLFGPDTAESIWTQCNEKLATPAFSARGIMQQMNVRMVGTTDDPIDSLEYHRQIAADDSIDIEVAPSWRPDKVFKIELDGFVDYLRKLEAAADVSITRFDDLRQALTRRLDHFAACGCRASDHGIETLRFAPVPDDAQLDAILGKRLAGETLSELEIAQFTTAVLVWLGRQYAARGWVMQLHIGAIRNNNTRMFRLLGPDTGFDSIGDNNISWALSRLLDSMDVTNELPKTILYCLNPRDNEVLATMIGNFQGPGIAGKVQFGSGWWFNDQKDGMLRQLEQLSQMGLLSQFVGMLTDSRSFLSYTRHEYFRRILCNLLGQWAQDGEIPDDEAMLSRMVQDICFNNAQRYFTIK”, the protein production was “not failed”.

In the case of “METLSNSILTVQIAEHGAELQSIKKDGKEYLWQGDAKFWGRRSPVLFPIVGRVWNNKYRHAGNTYEIGQHGFARDMDFKLTYKEDKGAVYWLESTPDTLGKFPFPFRLLVGYLLEENKITVKWRVENLGAMDMYFQIGAHPAFYFPEFDAATKDRGFFVFDRKSDLEYIMPTEKGCVSPERHVLKLNKEGLMPIDIHTFDCDTYIFDNKQLKKITLLDKKKKPHISLEFNSPLVALWSPTKTHPDCPFVCIEPWYGRCDSVGYSGELKDREWIQKLEPKETFDVEYKIIIE”, the protein production is reported as “failed”.

With “MSLKNKLQVKIPGKLYVAGEYAVVESGHTAILTAVNRYITLTLEDSERNELWIPHYENPVSWPIGGELKPDGEHWTFTAEAINIATTFLKSEGIELTPVKMVIETELIDQSGAKYGLGSSAAATVAVINALMTKFYPEISMLKKFKLAALSHLVVQGNGSCGDIASCMYGGWIAYTTFDQEWVKHRLAYKSLEWFMKEPWPMLQIETLEEPVPTFSVGWTGTPVSTGKLVSQIHAFKQEDSKNYQHFLTRNNEIMKQIIQAFHTKDEELLYSSIKENRRILQELGTKAGVNIETSLLKELADSAENMGGAGKSSGSGGGDCGIAFSKTKELAEKLVNEWEKLGIKHLPFHTGRVQITEGHHHHHH” the protein production was “not failed”.
